# Measurements reported in publication PMC9916714, “NMR Analysis Suggests Synergy between the RRM2 and the Carboxy-Terminal Segment of Human La Protein in the Recognition and Interaction with HCV IRES”.
# T1: La RRM2-SBM (Homo sapiens, UniProt P05455 225-359)
# T1 sequence: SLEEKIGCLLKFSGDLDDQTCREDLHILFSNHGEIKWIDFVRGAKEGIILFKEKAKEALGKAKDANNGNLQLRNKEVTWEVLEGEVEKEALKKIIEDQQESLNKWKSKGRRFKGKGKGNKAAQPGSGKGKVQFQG
# T2: La RRM1-RRM2-Cter (Homo sapiens, UniProt P05455 105-408)
# T2 sequence: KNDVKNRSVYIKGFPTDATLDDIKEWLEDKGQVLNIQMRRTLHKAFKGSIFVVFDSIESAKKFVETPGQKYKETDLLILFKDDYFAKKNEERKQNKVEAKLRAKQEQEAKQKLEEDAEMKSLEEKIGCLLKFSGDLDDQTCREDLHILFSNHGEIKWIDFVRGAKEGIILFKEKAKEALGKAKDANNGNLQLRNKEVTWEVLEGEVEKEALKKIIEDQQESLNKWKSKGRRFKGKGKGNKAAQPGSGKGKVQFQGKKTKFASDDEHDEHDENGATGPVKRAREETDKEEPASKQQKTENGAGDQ
# T3: La RRM1-RRM2-SBM (Homo sapiens, UniProt P05455 105-359)
# T3 sequence: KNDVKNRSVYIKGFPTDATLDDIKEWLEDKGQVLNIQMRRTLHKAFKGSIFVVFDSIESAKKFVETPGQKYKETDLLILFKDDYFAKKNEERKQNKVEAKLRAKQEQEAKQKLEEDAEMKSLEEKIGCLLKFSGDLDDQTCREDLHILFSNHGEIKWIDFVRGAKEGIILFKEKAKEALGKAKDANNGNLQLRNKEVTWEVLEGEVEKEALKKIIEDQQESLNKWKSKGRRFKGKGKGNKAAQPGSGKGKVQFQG
# T4: La RRM2-Cter (Homo sapiens, UniProt P05455 225-408)
# T4 sequence: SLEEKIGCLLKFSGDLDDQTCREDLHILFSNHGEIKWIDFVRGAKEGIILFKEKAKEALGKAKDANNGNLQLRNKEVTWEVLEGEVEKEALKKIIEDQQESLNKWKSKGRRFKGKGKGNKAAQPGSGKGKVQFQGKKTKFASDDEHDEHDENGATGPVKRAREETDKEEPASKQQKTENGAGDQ
# Key:
# Experiment in all cases: ITC; 50 mM KPi pH 7, 25 C; 50 mM KPi pH 7; ITC at 25 C (50 uM protein in cell, 500 uM RNA in syringe); NMR at 298 K, 0.1 mM protein, 90% H2O/10% D2O
# Conditions in all cases: protein: recombinant; tags: IMAC tag (pET20b+; tag not specified)
# [1] = target: T1, La RRM2-SBM
# [2] = target: T2, La RRM1-RRM2-Cter
# [3] = target: T3, La RRM1-RRM2-SBM
# [4] = target: T4, La RRM2-Cter
binder,measurement,setting,value
AGACCGUGCACCAUGAGCACGAAUCCA (structured_RNA) [HCV-IRES domain IV],Kd,[1],28.2 ± 1.21 µM
same,Kd,[2],9.76 ± 1.1 µM
same,Kd,[3],10.3 ± 2.04 µM
same,Kd,[4],15.3 ± 1.49 µM
